According to publication PMC4786724, “NdhM Subunit Is Required for the Stability and the Function of NAD(P)H Dehydrogenase Complexes Involved in CO2 Uptake in Synechocystis sp. Strain PCC 6803* ^([image sbox.jpg])” (The Journal of Biological Chemistry, 2015):

How the values were obtained:
NdhI-His6 = molecular target: T1, NdhI-His6 (Synechocystis sp. PCC 6803, UniProt P26525 1-193); assay: pull-down; GST-NdhM on glutathione-Sepharose 4B resin as bait, His-tagged Ndh subunits as prey; 2 h at 4 °C in 20 mM Tris-HCl pH 7.5, 100 mM NaCl, 0.1 mM EDTA, 0.2% Triton, 10% glycerol; washed five times with 300 mM NaCl, 0.5% Nonidet P-40; eluates blotted with anti-His antibody; conditions: both partners purified
T1 construct: NdhI subunit of NDH-1, Synechocystis sp; PCC 6803; fragment containing ndhI cloned into pET28a; also called His-tagged NdhI; source: E. coli BL21(DE3) pLysS, purified (nickel column)
T1 sequence (P26525 whole entry, the tested form may be a part): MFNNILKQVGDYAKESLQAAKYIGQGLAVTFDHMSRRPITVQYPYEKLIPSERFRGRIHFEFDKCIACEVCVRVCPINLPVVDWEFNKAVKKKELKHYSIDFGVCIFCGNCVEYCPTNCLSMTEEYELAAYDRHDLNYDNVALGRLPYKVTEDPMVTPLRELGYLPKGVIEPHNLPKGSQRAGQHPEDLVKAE

NdhH-His6 = molecular target: T2, NdhH-His6 (Synechocystis sp. PCC 6803, UniProt P27724 1-394); assay: as above; conditions: both partners purified
T2 construct: NdhH subunit of NDH-1, Synechocystis sp; PCC 6803; fragment containing ndhH cloned into pET28a; also called His-tagged NdhH; source: E. coli BL21(DE3) pLysS, purified (nickel column)
T2 sequence (looked up): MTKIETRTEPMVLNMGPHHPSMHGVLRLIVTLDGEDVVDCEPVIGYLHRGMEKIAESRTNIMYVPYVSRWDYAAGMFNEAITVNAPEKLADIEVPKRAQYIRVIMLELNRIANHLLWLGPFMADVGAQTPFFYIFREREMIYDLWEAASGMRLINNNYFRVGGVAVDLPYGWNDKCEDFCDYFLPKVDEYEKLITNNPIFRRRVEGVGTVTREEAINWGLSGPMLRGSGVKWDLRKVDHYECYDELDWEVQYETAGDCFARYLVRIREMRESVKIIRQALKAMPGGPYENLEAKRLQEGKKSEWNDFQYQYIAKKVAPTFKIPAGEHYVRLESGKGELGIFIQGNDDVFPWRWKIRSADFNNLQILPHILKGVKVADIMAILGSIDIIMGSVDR

- binding result (NdhI-His6): binds
- binding result (NdhH-His6): binds
B1: GST-NdhM (natural protein, Synechocystis sp. PCC 6803, UniProt P74338 1-121, looked up)
chain: MLVKSTTRHVRIFSAEVQGNELIPSNNVLTMDVDPDNEFVWNEDALQQVYRRFDELVESYSGEDLTDYNLRRIGSDLEHFIRDLLQAGKVSYNLDCRVLNYSMGLPKVENQETAGKYWLDN
notes: NdhM subunit of NDH-1, Synechocystis sp; PCC 6803, gene slr1623 (ndhM); fragment containing ndhM cloned into pGEX-4T-1; also called recombinant NdhM fused with GST; NdhM fused to GST; source: E. coli BL21(DE3) pLysS, purified (glutathione-Sepharose 4B column)
